Holding throughout (type): cell-based, human
The test system of one assay is NF-AT site. In words: Secreted alkaline phosphatase reporter in Jurkat Tag cells, NF-AT reporter. To be noted: transfection, 1 uM ionomycin plus 20 ng/ml PMA. The procedure: (§1) Jurkat Tag cells were transfected with vector plasmid (control) or with the dominant negative NF-ATc plasmid, plus the indicated secreted alkaline phosphatase reporter plasmid. Transfected cells were transferred to fresh culture medium 24 hours after transfection and secreted alkaline phosphatase activity was measured (Clipstone and Crabtree (1992) Nature 357: 695-698) 16 to 24 hours later, after stimulation with 1 uM ionomycin plus 20 ng/ml PMA (NF-AT and IL-2 reporters), 20 ng/ml PMA alone (AP-1 reporter) or no stimulation (RSV reporter). Bars indicate, secreted alkaline phosphatase activity from cells transfected with the dominant negative NF-ATc as a percentage of the activity from cells transfected in parallel with control plasmid, and represent data obtained from (n) independent transfections. The dominant negative NF-ATc consists of a carboxy terminal truncation of the epitope tagged NF-ATc expression plasmid extending to the PvuII site at amino acid 463.
(§2) The dominant negative NF-ATc used consists of a carboxy terminal truncation of the epitope tagged NF-ATc expression plasmid (supra) extending to the PvuII site at amino acid 463.

For another assay, the system named is IL-2 promoter. The experiment in a line: Secreted alkaline phosphatase reporter in Jurkat Tag cells, IL-2 reporter. The conditions noted are these: transfection, 1 uM ionomycin plus 20 ng/ml PMA. On the procedure: as §1, §2
A further assay concerns AP-1 site. In words: Secreted alkaline phosphatase reporter in Jurkat Tag cells, AP-1 reporter. The conditions noted are these: transfection, 20 ng/ml PMA alone. On the procedure:
as §1, §2

Assay [1] relates to RSV promoter and enhancer. The experiment in a line: Secreted alkaline phosphatase reporter in Jurkat Tag cells, RSV reporter. The conditions noted are these: transfection, no stimulation. On the procedure: as §1, §2

Consider 1 molecule from patent US6875571B2, “NF-AT polypeptides and polynucleotides and screening methods for immunosuppressive agents” (The Board of Trustees of the Leland Stanford Junior …, priority 1991, dated 2005).

B1: dominant negative NF-ATc: carboxy terminal truncation of the epitope tagged NF-ATc expression plasmid extending to the PvuII site at amino acid 463 (protein, UniProt Q13469 1-463, looked up, fragment)
chain: MNAPERQPQPDGGDAPGHEPGGSPQDELDFSILFDYEYLNPNEEEPNAHKVASPPSGPAYPDDVLDYGLKPYSPLASLSGEPPGRFGEPDRVGPQKFLSAAKPAGASGLSPRIEITPSHELIQAVGPLRMRDAGLLVEQPPLAGVAASPRFTLPVPGFEGYREPLCLSPASSGSSASFISDTFSPYTSPCVSPNNGGPDDLCPQFQNIPAHYSPRTSPIMSPRTSLAEDSCLGRHSPVPRPASRSSSPGAKRRHSCAEALVALPPGASPQRSRSPSPQPSSHVAPQDHGSPAGYPPVAGSAVIMDALNSLATDSPCGIPPKMWKTSPDPSPVSAAPSKAGLPRHIYPAVEFLGPCEQGERRNSAPESILLVPPTWPKPLVPAIPICSIPVTASLPPLEWPLSSQSGSYELRIEVQPKPHHRAHYETEGSRGAVKAPTGGHPVVQLHGYMENKPLGLQIFIGTA
modifications: epitope tag
As to B1, in the assay with NF-AT site, the “inhibition of transcription directed by the NF-AT site” value is listed as “more than 90%”. The “inhibition of IL-2 promoter function” value with IL-2 promoter was “more than 90%”. Moreover, in the assay with AP-1 site, the “transcription directed by the AP-1 site” value was “relatively unaffected”. The “transcription directed by the RSV promoter and enhancer” value in assay [1] is “relatively unaffected”.
